Measured values taken from publication PMC2636891, “Two Highly Conserved Cysteine Residues in HPV16 L2 Form an Intramolecular Disulfide Bond and Are Critical for Infectivity in Human Keratinocytes” (PLoS ONE, 2009).

T1: HPV16 major capsid protein L1 (human papillomavirus type 16, UniProt P03101 1-505, disulfide-linked to other L1 chains in the virions)
T1 construct: major capsid protein L1 of human papillomavirus type 16, expressed from the capsid expression plasmid pXULL; Assembled with L2 and the HPV16 genome into virions; source: 293TT, transfected with pXULL (L1 and L2 expression plasmid), in virions purified by CsCl density gradient
T1 sequence: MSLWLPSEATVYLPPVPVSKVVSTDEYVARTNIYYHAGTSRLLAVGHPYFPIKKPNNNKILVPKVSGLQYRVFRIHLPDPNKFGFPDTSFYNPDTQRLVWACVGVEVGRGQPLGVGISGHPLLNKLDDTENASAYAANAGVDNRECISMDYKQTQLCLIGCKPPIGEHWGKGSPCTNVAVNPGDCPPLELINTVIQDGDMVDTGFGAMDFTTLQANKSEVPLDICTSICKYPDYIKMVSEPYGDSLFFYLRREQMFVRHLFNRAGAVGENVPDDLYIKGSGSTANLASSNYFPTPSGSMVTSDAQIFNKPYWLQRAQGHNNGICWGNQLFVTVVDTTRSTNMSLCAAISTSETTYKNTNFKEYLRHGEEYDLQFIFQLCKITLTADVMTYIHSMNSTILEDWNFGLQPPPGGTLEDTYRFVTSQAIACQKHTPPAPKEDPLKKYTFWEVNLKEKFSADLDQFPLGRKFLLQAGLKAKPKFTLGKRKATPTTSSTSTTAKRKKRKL

B1: HPV16 minor capsid protein L2, wild type (natural protein)
chain: MRHKRSAKRTKRASATQLYKTCKQAGTCPPDIIPKVEGKTIAEQILQYGSMGVFFGGLGIGTGSGTGGRTGYIPLGTRPPTATDTLAPVRPPLTVDPVGPSDPSIVSLVEETSFIDAGAPTSVPSIPPDVSGFSITTSTDTTPAILDINNTVTTVTTHNNPTFTDPSVLQPPTPAETGGHFTLSSSTISTHNYEEIPMDTFIVSTNPNTVTSSTPIPGSRPVARLGLYSRTTQQVKVVDPAFVTTPTKLITYDNPAYEGIDVDNTLYFSSNDNSINIAPDPDFLDIVALHRPALTSRRTGIRYSRIGNKQTLRTRSGKSIGAKVHYYYDLSTIDPAEEIELQTITPSTYTTTSHAASPTSINNGLYDIYADDFITDTSTTPVPSVPSTSLSGYIPANTTIPFGGAYNIPLVSGPDIPINITDQAPSLIPIVPGSPQYTIIADAGDFYLHPSYYMLRKRRKRLPYFFSDVSLAA
modifications: intramolecular disulfide bond C22-C28
notes: minor capsid protein L2 of human papillomavirus type 16, expressed from pXULL; AAD33258 is the entry used for the alignment and gi 4927726 the one searched in mass spectrometry; Assembled with L1 into virions; also called wild type L2; source: 293TT, transfected with pXULL (L1 and L2 expression plasmid), in virions purified by CsCl density gradient
B2: HPV16 L2 C28S (natural protein)
chain: MRHKRSAKRTKRASATQLYKTCKQAGTSPPDIIPKVEGKTIAEQILQYGSMGVFFGGLGIGTGSGTGGRTGYIPLGTRPPTATDTLAPVRPPLTVDPVGPSDPSIVSLVEETSFIDAGAPTSVPSIPPDVSGFSITTSTDTTPAILDINNTVTTVTTHNNPTFTDPSVLQPPTPAETGGHFTLSSSTISTHNYEEIPMDTFIVSTNPNTVTSSTPIPGSRPVARLGLYSRTTQQVKVVDPAFVTTPTKLITYDNPAYEGIDVDNTLYFSSNDNSINIAPDPDFLDIVALHRPALTSRRTGIRYSRIGNKQTLRTRSGKSIGAKVHYYYDLSTIDPAEEIELQTITPSTYTTTSHAASPTSINNGLYDIYADDFITDTSTTPVPSVPSTSLSGYIPANTTIPFGGAYNIPLVSGPDIPINITDQAPSLIPIVPGSPQYTIIADAGDFYLHPSYYMLRKRRKRLPYFFSDVSLAA
notes: minor capsid protein L2 of human papillomavirus type 16 with C28S, expressed from a pXULL variant made by site directed mutagenesis; Assembled with L1 into virions; also called single C28S mutant; source: 293TT, transfected with mutant pXULL, in virions purified by CsCl density gradient
B3: HPV16 L2 C22S (natural protein)
chain: MRHKRSAKRTKRASATQLYKTSKQAGTCPPDIIPKVEGKTIAEQILQYGSMGVFFGGLGIGTGSGTGGRTGYIPLGTRPPTATDTLAPVRPPLTVDPVGPSDPSIVSLVEETSFIDAGAPTSVPSIPPDVSGFSITTSTDTTPAILDINNTVTTVTTHNNPTFTDPSVLQPPTPAETGGHFTLSSSTISTHNYEEIPMDTFIVSTNPNTVTSSTPIPGSRPVARLGLYSRTTQQVKVVDPAFVTTPTKLITYDNPAYEGIDVDNTLYFSSNDNSINIAPDPDFLDIVALHRPALTSRRTGIRYSRIGNKQTLRTRSGKSIGAKVHYYYDLSTIDPAEEIELQTITPSTYTTTSHAASPTSINNGLYDIYADDFITDTSTTPVPSVPSTSLSGYIPANTTIPFGGAYNIPLVSGPDIPINITDQAPSLIPIVPGSPQYTIIADAGDFYLHPSYYMLRKRRKRLPYFFSDVSLAA
notes: minor capsid protein L2 of human papillomavirus type 16 with C22S, expressed from a pXULL variant made by site directed mutagenesis; Assembled with L1 into virions; also called single C22S mutant; source: 293TT, transfected with mutant pXULL, in virions purified by CsCl density gradient
B4: HPV16 L2 C22/28S (natural protein)
chain: MRHKRSAKRTKRASATQLYKTSKQAGTSPPDIIPKVEGKTIAEQILQYGSMGVFFGGLGIGTGSGTGGRTGYIPLGTRPPTATDTLAPVRPPLTVDPVGPSDPSIVSLVEETSFIDAGAPTSVPSIPPDVSGFSITTSTDTTPAILDINNTVTTVTTHNNPTFTDPSVLQPPTPAETGGHFTLSSSTISTHNYEEIPMDTFIVSTNPNTVTSSTPIPGSRPVARLGLYSRTTQQVKVVDPAFVTTPTKLITYDNPAYEGIDVDNTLYFSSNDNSINIAPDPDFLDIVALHRPALTSRRTGIRYSRIGNKQTLRTRSGKSIGAKVHYYYDLSTIDPAEEIELQTITPSTYTTTSHAASPTSINNGLYDIYADDFITDTSTTPVPSVPSTSLSGYIPANTTIPFGGAYNIPLVSGPDIPINITDQAPSLIPIVPGSPQYTIIADAGDFYLHPSYYMLRKRRKRLPYFFSDVSLAA
notes: minor capsid protein L2 of human papillomavirus type 16 with C22S and C28S, expressed from a pXULL variant made by site directed mutagenesis; Assembled with L1 into virions; also called double mutant; source: 293TT, transfected with mutant pXULL, in virions purified by CsCl density gradient

Key:
[1] = molecular target: T1, HPV16 major capsid protein L1; experiment: co-sedimentation; CsCl-purified virions; SDS-PAGE and Coomassie staining-based densitometry; data not shown; settings: partners not purified
[2] = molecular target: the molecule itself; experiment: non-reducing denaturing SDS-PAGE with immunoblot; purified virions reacted with 2 mM NEM for 1.5 h at room temperature, mixed with non-reducing SDS loading buffer (2% SDS), 7.5% gel, immunoblot for L1 and L2; shows only disulfide-linked species

Binder	molecules L2 per virion [1]	stoichiometry N [2]
B1	~22 molecules L2 per virion	
B2	~22 molecules L2 per virion	2
B3	~22 molecules L2 per virion	2
B4	~22 molecules L2 per virion	
